The source of these data is patent US20250368734A1 (ANTENGENE BIOLOGICS, published 2025).

Assay [1] deals with T1, human GPRC5D (human, UniProt Q9NZD1 1-345).
T1 construct: whole, on cells; also called hGPRC5D; G-protein coupled receptor family C group 5 member D
As to the kind of experiment: FACS, OPM-2 cells. Summed up:
(§1)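 Subclone antibodies incubated with parental or GPRC5D-overexpressing HEK293T cells (human, cynomolgus, mouse) and OPM2 cells; bound antibody detected with fluorescent dye-conjugated secondary antibody. Median fluorescence intensity read by FACS.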

Assay [2] deals with T2, cynomolgus monkey GPRC5D (cynomolgus monkey).
T2 construct: whole, on cells; HEK293T-cynoGPRC5D cells; also called cynoGPRC5D
As to the kind of experiment: FACS, HEK293T-cynoGPRC5D cells. The source says: (§2) The subcloning plates were screened by Mirrorball assay and the subclones with good binding ability were expanded to 24-wells for confirmation tests. The specificity and cross-reactivity of these subclones were confirmed with FACS analysis. Briefly, parental HEK293T, HEK293T cells stably over-expressing human GPRC5D protein (i.e., HEK293T-hGPRC5D), HEK293T cells stably over-expressing cynomolgus monkey GPRC5D protein (i.e., HEK293T-cynoGPRC5D), HEK293T cells stably over-expressing mouse GPRC5D protein (i.e., HEK293T-mGPRC5D), and OPM2 cells were incubated with antibodies produced by each subclone, respectively. Fluorescent dye-conjugated secondary antibody was used to detect the binding of the primary antibody with the cells. Median fluorescence intensity (MFI) was measured by FACS analysis,
(§3) As a result, 21 antibodies were discovered with unique sequences showing positive binding with HEK293T-hGPRC5D and OPM2 cells. Among which, some clones could also bind with HEK293T-cynoGPRC5D and/or HEK293T-mGPRC5D. […] ATG596 was a positive human IgG1 control antibody which comprises a VH region having an amino acid sequence as set forth in SEQ ID NO: 199, and a VL region having an amino acid sequence as set forth in SEQ ID NO: 200.
For orientation: In flow cytometry, cells or beads pass a laser one at a time.

In assay [3] the target is T1, human GPRC5D. As to the kind of experiment: FACS, HEK293T-hGPRC5D cells. Summed up: as §1
In assay [4] the target is T3, mouse GPRC5D (mouse, UniProt Q9JIL6 1-344).
T3 construct: whole, on cells; HEK293T-mGPRC5D cells; also called mGPRC5D; murine GPRC5D
T3 sequence (looked up): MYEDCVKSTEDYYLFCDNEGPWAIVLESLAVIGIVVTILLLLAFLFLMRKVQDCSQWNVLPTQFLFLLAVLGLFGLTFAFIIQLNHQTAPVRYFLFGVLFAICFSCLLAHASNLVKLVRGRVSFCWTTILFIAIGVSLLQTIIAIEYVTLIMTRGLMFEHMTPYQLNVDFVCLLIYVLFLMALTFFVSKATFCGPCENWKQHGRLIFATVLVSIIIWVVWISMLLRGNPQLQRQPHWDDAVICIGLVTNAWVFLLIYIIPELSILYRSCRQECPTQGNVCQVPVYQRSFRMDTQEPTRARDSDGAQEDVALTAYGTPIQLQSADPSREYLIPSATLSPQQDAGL
As to the kind of experiment: FACS, HEK293T-mGPRC5D cells.
Excerpt: as §2, §3

In assay [5] the target is T1, human GPRC5D. As to the kind of experiment: cell-based or functional assay.
The target in assay [6] is T2, cynomolgus monkey GPRC5D. As to the kind of experiment: FACS, HEK293T-cynoGPRC5D cells. The method in brief:
as §1
This is another data set of the same source.

For assay [7], the target named is T2, cynomolgus monkey GPRC5D. The experiment in a line: FACS, HEK293T-cynoGPRC5D cells. This is another data set of the same source.
Assay [8] deals with T3, mouse GPRC5D. As to the kind of experiment: FACS, HEK293T-mGPRC5D cells.
Excerpt: as §2, §3
This is another data set of the same source.

The target in assay [9] is T3, mouse GPRC5D. As to the kind of experiment: FACS, HEK293T-mGPRC5D cells. The source holds these as a separate data set.

Substitutions are numbered along the chain they refer to. Read-outs that look alike come from different tables or passages of the source.

T1 sequence (Q9NZD1 whole entry): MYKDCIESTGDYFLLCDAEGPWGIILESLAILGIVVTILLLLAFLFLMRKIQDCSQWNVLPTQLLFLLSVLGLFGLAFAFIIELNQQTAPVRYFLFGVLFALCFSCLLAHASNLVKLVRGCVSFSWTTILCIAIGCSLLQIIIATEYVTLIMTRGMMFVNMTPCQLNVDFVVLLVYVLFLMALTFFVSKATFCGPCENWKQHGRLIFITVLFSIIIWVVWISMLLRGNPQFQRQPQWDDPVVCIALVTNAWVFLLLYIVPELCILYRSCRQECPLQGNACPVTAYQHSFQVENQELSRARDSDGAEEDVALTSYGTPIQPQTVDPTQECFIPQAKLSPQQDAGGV

B1: 26E2H6 (antibody, V domains shown)
VH: EVQLVESGGDLVKPGGSLKLSCAASGFTFSSYGMSWVRQTPDKRLEWVATISSGGSYTYYPDSVKGRFTISRDNAKNTLYLQMSSLKSEDTAMYYCARHATDYWGQGTTLTVSS
VL: QIVLTQSPAIMSASPGEKVTMTCSASSSVSYMHWYQQKSGTSPKRWIYDTSKLASGVPARFSGSGSGTSYSLTISSMEAEDAATYYCQQWSSNPLTFGAGTKLELK
notes: Mouse monoclonal antibody from hybridoma subclone
In the case of B1, the “% Positive” value with human GPRC5D [1] came out at 97.9%; with cynomolgus monkey GPRC5D [2], 1%; with human GPRC5D [3], 99.8%; in the assay with mouse GPRC5D [4] it was 68.4%. The MFI was found to be 1150 with human GPRC5D [1], 116 in the assay with cynomolgus monkey GPRC5D [2], 27200 with human GPRC5D [3] and 370 in the assay with mouse GPRC5D [4].

B2: 12G12C2 (antibody, V domains shown)
VH: QIQLVQSGPELKMPGETVKISCKASGYTFTTYGLSWVKQAPGKGLKWMGWINTFSGVPIYADDFKGRFAFSLETSASTAYLQINNLKNEDTATYFCARWGIRQRGDYWGQGATLTVSS
VL: B1 VL with M32L, A59V, G67E, S91T, L95P, A99G, L105I
notes: as for B1
Turning to B2, the “% Positive” value with human GPRC5D [1] was 98.4%; with cynomolgus monkey GPRC5D [2], 96.2%; in the assay with human GPRC5D [3], 98.7%; with mouse GPRC5D [4], 99%. Also, the MFI was found to be 1070 with human GPRC5D [1], 24700 with cynomolgus monkey GPRC5D [2], 32100 with human GPRC5D [3] and 7080 with mouse GPRC5D [4].

B3: 15D6G2 (antibody, V domains shown)
VH: EVQLVESGGDLVKPGGYLRLSCAASGFTFSSHGMSWVRQTPDKRLEWVATISSGGRNTYYPDSVKGRFTISRDNAKNILYLQMSSLKSEDTAMFYCTRHSGDAMDYWGQGTSVTVSS
VL: DILLTQSPAILSVSPGERVSFSCRASQSIGTNIHWYQQRTNGSPRLLIKYASESISGIPSRFSGSGSGTDFTLSINSVESEDIADYYCQQSKSWPTFGGGTKLEIK
notes: as for B1
Regarding B3, the “% Positive” value was found to be 99.4% with human GPRC5D [1], 99.7% with cynomolgus monkey GPRC5D [2], 99.5% in the assay with human GPRC5D [3] and 14.6% with mouse GPRC5D [4]. For the same molecule, the MFI amounted to 1740 with human GPRC5D [1], 7760 with cynomolgus monkey GPRC5D [2], 32800 with human GPRC5D [3] and 150 with mouse GPRC5D [4].

B4: Bis-116G1G4 (bispecific antibody)
chain 1: EVQLQQSGPELVKPGASVKMSCKASGYTFTYYIMHWVKQEPGQGLQWIGYINPYNDGAYYSARFKGKATLTSDKSSSTAYMDLTSLTSEDSAVYYCARGGVRRYFDVWGAGTTVTVSS
chain 2: GGGGSGGGGSGGGGSEVQLVESGGGLVQPGRSLRLSCAASGFTFDNYAMHWVRQAPGKGLEWVSGISWNSGSIGYADSVKGRFTISRDNAKNSLYLQMNSLRAEDTALYYCAKDSRGYGDYSRGGAYWGQGTLVTVSSEIVMTQSPATLSVSPGERATLSCRASQSVSSNLAWYQQKPGQAPRLLIYGASTRATGIPARFSGSGSGTEFTLTISSLQSEDFAVYYCQQYNNWPWTFGQGTKVEIK
chain 3: DIQMTQSPSSLSASLGERVILTCRASQDIGSNLIWLQQKPDGTIKRLIYATFNLDSGVSKRFSGSRSGSDYSLTISSLDSEDFVDYYCLQYASSPYTFGGGTKLEIK
Consider B4, for which, in the assay with human GPRC5D [5], a half-maximal response (EC50) required 1.88 nM and the Top killing % stood at 69.2%.

B5: Bis-116F1G6 (bispecific antibody)
chain 1: EVQLQHSGPELVKPGASVKMSCKASGYTFTTYVMHWVKQKPGQGLEWIGYINPYNDGTKYNEKFKGKATLTSDKSSSTAYMELSSLTSEDSAVYYCARGGVRRYFDVWGAGTTVTVSS
chain 2: B4 chain 2
chain 3: B4 chain 3 with I20S, I34N, K39E, D41N, N53T, S59P, D79E, S94F
For B5, in the assay with human GPRC5D [5], the 50% effective concentration (EC50) is 1.66 nM and the Top killing % stood at 71.8%.

B6: 20C4E1 (antibody, V domains shown)
VH: EVRLVESGGALVRPGGSLKLSCAASGFTFSDYGMHWVRQAPEKGLEWIAFISSVSFTIYYADTVKGRFTISRDNAKNTLFLQMTSLRSEDTALYYCTRLGPHWYFDVWGTGTTVTVSS
VL: DVVLTQTPLSLPVSLGDQASISCRSSQSLVYSNGNTYLHWFLQKPGQSPQLLIYKVSNRFSGVPDRFSGSGSGTDFTLKISRVEAEDLGVYFCSQSTPVPTFGGGTKLEIK
notes: as for B1
As to B6, the “% Positive” value with human GPRC5D [1] stood at 99.5%; in the assay with cynomolgus monkey GPRC5D [2] it was 99.2%; in the assay with human GPRC5D [3] it was 99.9%; with mouse GPRC5D [4], 82.7%. Besides, the MFI with human GPRC5D [1] came to 2020; in the assay with cynomolgus monkey GPRC5D [2], 31300; with human GPRC5D [3], 38900; with mouse GPRC5D [4], 592.

B7: 36A3G8 (antibody, V domains shown)
VH: QVQLQQSGAELARPGASVKMSCKASGYTFTTYTMHWIKQRPGQDLEWIGFINPSSGYTKYNQNFKDKATLTADKSSTTAYMQLNSLTSEDSAVYYCASPYGNIYFDVWGTGTTVTVSS
VL: DIVMTQSQKFMSTAVGDRVSITCKASQNVGTAVAWYQQKPGQSPKLLIYSASNRYTGVPDRFTGSGSGTDFTLTISNMQSEDLADYFCQQYSSYPLTFGAGTKLELK
notes: as for B1
For B7, the “% Positive” value was 96.3% in the assay with human GPRC5D [1], 96.6% in the assay with cynomolgus monkey GPRC5D [2] and 99.3% in the assay with human GPRC5D [3]. In addition, the MFI was found to be 791 with human GPRC5D [1], 3110 with cynomolgus monkey GPRC5D [2] and 31800 with human GPRC5D [3].

B8: 28H9C12 (antibody, V domains shown)
VH: EVQLVESGGGLVKPGGSLKLSCAASGFTFSDYGMHWVRQAPEKGLEWVAYISSGSSTIYYADTVKGRFTISRDNAKNTLFLQMTSLRSEDTAIYYCVRRPWYFDVWGTGTTVTVSS
VL: DVLMTQTPLSLPVSLGDQASISCRSSQSIVHSNGNTYLQWYLQKPGQSPKLLIYKVSNRFSGVPDRFSGSGSGTDFTLKISRLEAEDLGVYYCFQGSHVPFTFGSGTKLEIK
notes: Mouse monoclonal antibody from hybridoma subclone; also called 281H9C12
Regarding B8, the “% Positive” value with human GPRC5D [1] turned out to be 97.9%; with cynomolgus monkey GPRC5D [2] it was 99.8%; with human GPRC5D [3], 99.6%; in the assay with mouse GPRC5D [4], 1.6%. Also, the MFI amounted to 1120 with human GPRC5D [1], 18000 with cynomolgus monkey GPRC5D [2], 25100 with human GPRC5D [3] and 121 in the assay with mouse GPRC5D [4].

B9: ATG596 (antibody, V domains shown)
VH: QVQLVQSGAEVKKPGASVKVSCKASGYSFTGYTMNWVRQAPGQGLEWMGLINPYNSDTNYAQKLQGRVTMTTDTSTSTAYMELRSLRSDDTAVYYCARVALRVALDYWGQGTLVTVSS
VL: DIQMTQSPSSLSASVGDRVTITCKASQNVATHVGWYQQKPGKAPKRLIYSASYRYSGVPSRFSGSGSGTEFTLTISNLQPEDFATYYCQQYNRYPYTFGQGTKLEIK
notes: Human IgG1; also called benchmark antibody ATG596; positive human IgG1 control antibody
With B9, the “% Positive” value in the assay with cynomolgus monkey GPRC5D [6] was 98.6%; with cynomolgus monkey GPRC5D [2], 98.5%; with mouse GPRC5D [4], 98.2%; with mouse GPRC5D [8] it was 97.3%. Also, the MFI with cynomolgus monkey GPRC5D [6] turned out to be 6580; in the assay with cynomolgus monkey GPRC5D [2] it was 7400; with mouse GPRC5D [4] it was 14600; in the assay with mouse GPRC5D [8], 12400. Besides, the EC50 with cynomolgus monkey GPRC5D [7] came to 26.6 nM; with mouse GPRC5D [9], 25.5 nM. For the same molecule, the Top with cynomolgus monkey GPRC5D [7] was 22500; with mouse GPRC5D [9], 45600.

In general, EC50 refers to the concentration at which the effect is half-maximal.
